We go through three molecules from US20240425603A1 (Janssen / Centocor, published 2024).

Experiment [1] has as its target T1, human VEGFR1, full length, over-expressed on cells (human, UniProt P17948 27-1338).
T1 construct: on CHO-K1 or HEK cells; also called hVEGFR1; CHOK1/ human VEGFR1
The experiment can be described thus: cell binding assay (column head prints IC50).

The target of experiment [2] is T2, human VEGFR2, over-expressed on HEK293 cells (human, UniProt P35968 20-1356).
T2 construct: whole, on cells; also called huVEGFR2; hVEGFR2
The experiment can be described thus: flow cytometry, single concentration (Table 21).

Experiment [3] has as its target T3, NECTIN1 Isoform Gamma (NM_203286.1) (human, UniProt Q15223-3 31-352).
T3 construct: whole, on cells
T3 sequence (looked up): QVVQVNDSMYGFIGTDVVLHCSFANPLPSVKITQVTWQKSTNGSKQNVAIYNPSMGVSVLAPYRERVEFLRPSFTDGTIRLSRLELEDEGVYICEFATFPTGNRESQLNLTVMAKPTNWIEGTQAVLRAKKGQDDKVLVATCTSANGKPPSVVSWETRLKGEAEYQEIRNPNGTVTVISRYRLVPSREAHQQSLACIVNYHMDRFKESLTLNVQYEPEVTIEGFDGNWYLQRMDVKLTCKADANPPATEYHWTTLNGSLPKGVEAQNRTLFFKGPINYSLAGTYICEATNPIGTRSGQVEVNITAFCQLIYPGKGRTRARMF
The experiment is described as follows: Retrogenix cell microarray, fixed HEK293 cells, 2 ug/mL antibody; topology TS. As for the experimental part: This human cell microarray methodology has been previously described in the literature (Freeth, J. et al, SLAS Discovery, 25 (2), 223-230, 2020). Primary screening was performed on slides arrayed with fixed HEK293 cells with each spot of HEK293 cells expressing either a unique protein from the cell surface-ome, a cell surface tethered human secreted protein, or a heterodimeric human cell surface receptor. In total, 5,528 unique gene products were represented in this primary screen (4,103 human plasma membrane proteins (+some untethered secreted proteins)+1,425 cell surface tethered human secreted proteins). Briefly, slides containing fixed transfected HEK293 cells were overlaid with a solution of test antibody (2 μg/mL), incubated, and washed. Binding was assessed using AlexaFluor647-conjugated anti-human IgG Fc detection antibody and fluorescence quantitation on ImageQuant. […] Located in the ER, off-target binding to CRELD2 was of less concern. Nectin-1, FGFR2, and ISLR, on the other hand, display broad tissue expression profiles. Cross-reactivity to these proteins is undesirable because binding to these targets might have a significant impact on pharmacokinetic and biodistribution profiles of the molecules. This off-target binding was subsequently confirmed by flow cytometry on live HEK293 cells transiently expressing these ‘off-target’ proteins identified in the primary screen.

Experiment [4] has as its target T4, murine VEGFR1, over-expressed on cells (mouse, UniProt P35969 23-1333).
T4 construct: whole, on cells; also called mouse VEGFR1
T4 sequence (looked up): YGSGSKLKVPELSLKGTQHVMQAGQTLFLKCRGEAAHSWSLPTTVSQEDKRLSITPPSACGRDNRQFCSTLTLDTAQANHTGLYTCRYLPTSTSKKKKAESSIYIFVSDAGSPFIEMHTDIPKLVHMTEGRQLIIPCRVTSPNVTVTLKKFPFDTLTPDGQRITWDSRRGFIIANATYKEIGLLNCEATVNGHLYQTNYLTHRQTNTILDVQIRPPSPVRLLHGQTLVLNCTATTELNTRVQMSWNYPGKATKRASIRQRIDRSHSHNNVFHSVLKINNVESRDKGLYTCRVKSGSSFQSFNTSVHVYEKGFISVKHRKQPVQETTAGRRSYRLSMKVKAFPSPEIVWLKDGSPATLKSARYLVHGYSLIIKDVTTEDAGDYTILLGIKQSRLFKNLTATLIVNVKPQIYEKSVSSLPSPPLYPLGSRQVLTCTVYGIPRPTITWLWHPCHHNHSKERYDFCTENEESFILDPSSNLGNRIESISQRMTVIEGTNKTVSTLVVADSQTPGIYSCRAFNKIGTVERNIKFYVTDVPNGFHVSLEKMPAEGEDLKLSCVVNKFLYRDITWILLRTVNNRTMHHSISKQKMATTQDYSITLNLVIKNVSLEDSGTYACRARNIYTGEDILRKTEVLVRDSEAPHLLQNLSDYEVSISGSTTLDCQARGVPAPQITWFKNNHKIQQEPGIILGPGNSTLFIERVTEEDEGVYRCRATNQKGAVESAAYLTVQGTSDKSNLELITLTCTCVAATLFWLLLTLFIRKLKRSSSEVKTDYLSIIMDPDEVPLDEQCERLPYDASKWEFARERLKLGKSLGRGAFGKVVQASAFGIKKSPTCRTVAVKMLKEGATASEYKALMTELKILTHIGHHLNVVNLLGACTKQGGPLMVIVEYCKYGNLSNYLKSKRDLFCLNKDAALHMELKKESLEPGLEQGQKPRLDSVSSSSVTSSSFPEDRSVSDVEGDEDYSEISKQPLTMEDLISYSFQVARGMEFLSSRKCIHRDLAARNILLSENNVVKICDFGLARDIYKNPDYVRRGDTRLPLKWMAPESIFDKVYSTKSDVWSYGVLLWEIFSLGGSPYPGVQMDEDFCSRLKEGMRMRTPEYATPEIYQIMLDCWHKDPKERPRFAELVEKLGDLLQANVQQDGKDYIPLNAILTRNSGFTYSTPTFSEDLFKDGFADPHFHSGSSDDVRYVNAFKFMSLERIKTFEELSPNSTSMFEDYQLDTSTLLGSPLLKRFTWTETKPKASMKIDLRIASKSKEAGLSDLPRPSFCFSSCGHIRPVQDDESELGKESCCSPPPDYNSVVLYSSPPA
The experiment can be described thus: FACS cell binding (MFI) on HEK cells over-expressing murine VEGFR1; expanded clone supernatant per paragraph 492, concentration not given. In short, it runs like this:
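Chicken-derived antibody clones were expressed as scFv-Fc (human IgG1) by transient transfection and expanded to 6-well plates (2 mL). They were tested as culture supernatants. Binding was measured by flow cytometry on cells engineered to over-express the receptor: HEK cells for mouse VEGFR1 and human VEGFR2, and K562 cells for human VEGFR3. The read-out is mean fluorescence intensity.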

Experiment [5] deals with human VEGFR1 (soluble antigen of the KinExA and SPR affinity assays) (human, UniProt P17948 27-758, limits assumed). The experiment can be described thus: SPR.

Values joined by “and” are separate entries in the source; they are usually repeats but may differ in a detail not shown here. Identical values can stand only once.

Chain of human VEGFR1 (soluble antigen of the KinExA and SPR affinity assays) (P17948 27-758 limits assumed): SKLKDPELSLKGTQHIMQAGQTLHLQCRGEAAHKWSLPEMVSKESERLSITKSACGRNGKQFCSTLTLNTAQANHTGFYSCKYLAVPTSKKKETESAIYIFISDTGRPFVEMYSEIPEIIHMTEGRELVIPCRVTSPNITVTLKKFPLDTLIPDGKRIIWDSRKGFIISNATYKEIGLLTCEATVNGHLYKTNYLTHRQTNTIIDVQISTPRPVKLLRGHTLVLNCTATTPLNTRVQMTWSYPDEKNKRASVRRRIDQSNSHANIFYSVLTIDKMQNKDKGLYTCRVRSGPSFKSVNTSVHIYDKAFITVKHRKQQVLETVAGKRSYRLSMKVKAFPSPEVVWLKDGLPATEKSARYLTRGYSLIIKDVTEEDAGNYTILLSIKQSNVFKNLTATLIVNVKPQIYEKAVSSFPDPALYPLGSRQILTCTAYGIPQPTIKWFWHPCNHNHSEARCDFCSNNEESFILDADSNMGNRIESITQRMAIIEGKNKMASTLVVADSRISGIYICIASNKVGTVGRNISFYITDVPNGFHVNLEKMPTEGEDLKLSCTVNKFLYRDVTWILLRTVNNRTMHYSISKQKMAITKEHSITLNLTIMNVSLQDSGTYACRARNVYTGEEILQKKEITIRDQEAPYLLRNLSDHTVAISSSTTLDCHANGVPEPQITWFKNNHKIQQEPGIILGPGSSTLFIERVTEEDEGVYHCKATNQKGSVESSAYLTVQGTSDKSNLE
T1 sequence (P17948 27-1338 limits assumed): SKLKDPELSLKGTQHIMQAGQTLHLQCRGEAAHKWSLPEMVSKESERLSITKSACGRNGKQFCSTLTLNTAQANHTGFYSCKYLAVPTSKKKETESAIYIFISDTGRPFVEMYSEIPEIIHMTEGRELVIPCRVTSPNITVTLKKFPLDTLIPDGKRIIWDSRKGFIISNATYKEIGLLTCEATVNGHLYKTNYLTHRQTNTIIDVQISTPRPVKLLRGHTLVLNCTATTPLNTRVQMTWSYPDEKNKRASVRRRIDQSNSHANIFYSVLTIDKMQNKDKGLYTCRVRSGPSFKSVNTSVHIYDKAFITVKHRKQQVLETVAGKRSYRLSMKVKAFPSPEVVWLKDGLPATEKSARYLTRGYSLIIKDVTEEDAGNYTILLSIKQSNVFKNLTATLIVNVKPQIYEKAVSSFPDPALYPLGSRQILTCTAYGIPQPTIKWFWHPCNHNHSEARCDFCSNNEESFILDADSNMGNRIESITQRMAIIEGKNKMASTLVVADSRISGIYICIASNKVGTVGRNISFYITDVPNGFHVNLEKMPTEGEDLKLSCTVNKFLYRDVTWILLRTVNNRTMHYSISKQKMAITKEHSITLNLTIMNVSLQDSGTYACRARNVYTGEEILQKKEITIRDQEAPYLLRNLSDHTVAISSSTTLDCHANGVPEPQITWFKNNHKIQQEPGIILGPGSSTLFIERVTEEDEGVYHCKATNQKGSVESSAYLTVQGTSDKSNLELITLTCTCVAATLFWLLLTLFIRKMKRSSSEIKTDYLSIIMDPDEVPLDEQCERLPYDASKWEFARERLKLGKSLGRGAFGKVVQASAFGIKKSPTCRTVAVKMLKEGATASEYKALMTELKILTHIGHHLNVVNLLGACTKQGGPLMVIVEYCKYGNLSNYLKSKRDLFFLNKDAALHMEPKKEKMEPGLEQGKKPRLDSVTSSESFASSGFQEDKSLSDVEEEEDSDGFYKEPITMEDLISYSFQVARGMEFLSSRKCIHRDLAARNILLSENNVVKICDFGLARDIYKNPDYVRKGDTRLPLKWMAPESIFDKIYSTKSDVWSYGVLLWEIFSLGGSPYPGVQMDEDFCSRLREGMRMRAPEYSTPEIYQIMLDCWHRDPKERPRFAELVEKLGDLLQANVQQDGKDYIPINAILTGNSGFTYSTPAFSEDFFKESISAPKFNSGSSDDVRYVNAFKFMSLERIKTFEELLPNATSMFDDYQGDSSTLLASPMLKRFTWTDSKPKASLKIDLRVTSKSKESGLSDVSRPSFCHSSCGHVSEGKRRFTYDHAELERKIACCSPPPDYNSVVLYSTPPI
T2 sequence (P35968 20-1356): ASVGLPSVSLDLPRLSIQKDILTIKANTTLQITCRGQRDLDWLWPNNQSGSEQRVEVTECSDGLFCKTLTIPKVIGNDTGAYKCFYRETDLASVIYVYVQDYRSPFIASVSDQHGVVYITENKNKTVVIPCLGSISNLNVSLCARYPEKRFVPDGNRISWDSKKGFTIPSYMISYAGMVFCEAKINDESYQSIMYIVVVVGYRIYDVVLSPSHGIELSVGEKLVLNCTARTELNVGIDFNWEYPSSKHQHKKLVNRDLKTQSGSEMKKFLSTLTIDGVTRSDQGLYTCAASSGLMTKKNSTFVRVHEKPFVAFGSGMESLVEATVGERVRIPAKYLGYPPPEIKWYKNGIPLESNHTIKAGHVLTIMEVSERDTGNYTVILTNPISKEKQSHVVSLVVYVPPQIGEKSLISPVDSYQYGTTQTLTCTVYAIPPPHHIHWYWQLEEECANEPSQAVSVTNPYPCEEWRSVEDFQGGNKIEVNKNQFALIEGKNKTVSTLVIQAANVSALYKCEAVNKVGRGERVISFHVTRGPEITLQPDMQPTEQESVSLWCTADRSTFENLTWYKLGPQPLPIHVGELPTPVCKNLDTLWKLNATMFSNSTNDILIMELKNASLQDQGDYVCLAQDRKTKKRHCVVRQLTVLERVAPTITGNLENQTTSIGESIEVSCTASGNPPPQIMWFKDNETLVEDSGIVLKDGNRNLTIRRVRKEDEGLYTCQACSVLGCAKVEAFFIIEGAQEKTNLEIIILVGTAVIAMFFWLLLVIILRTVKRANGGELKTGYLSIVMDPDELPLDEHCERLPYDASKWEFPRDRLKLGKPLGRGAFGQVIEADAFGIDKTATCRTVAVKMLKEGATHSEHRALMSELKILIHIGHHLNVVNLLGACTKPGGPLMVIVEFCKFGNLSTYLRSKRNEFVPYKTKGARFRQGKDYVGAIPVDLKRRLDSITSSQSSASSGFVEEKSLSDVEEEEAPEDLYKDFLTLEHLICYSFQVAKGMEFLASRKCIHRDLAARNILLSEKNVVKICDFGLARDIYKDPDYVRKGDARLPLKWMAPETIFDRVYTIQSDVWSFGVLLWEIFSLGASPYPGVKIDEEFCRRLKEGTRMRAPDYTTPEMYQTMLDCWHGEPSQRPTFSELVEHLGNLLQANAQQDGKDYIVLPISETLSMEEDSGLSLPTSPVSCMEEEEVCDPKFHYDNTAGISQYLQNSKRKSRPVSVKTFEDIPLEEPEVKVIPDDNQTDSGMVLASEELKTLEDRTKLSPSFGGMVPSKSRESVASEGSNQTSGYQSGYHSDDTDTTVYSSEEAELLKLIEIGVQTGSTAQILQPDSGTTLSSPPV

B1: VGFB54 (antibody, human IgG1, lambda, L234A L235A, V domains shown)
VH: EVQLLESGGGSVQPGGSLRLSCTASGFNFEDYGMNWVRQAPGKGLDWVSSINRNGDISTYHVDSVKGRFTISRDNSKNTLYLQMNSLRAEDTAIYYCTKNHDYHGMDVWGQGTTVTVSS
VL: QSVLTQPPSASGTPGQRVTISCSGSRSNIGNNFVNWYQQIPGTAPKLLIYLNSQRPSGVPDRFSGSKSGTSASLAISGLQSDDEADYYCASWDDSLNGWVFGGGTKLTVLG
notes: human IgG1 (L234A/L235A/D265S), lambda, 2H:2L; from OmniChicken
Regarding B1, in experiment [1], the IC50 was determined as 0.198 nM. This counts as sub-nanomolar.

B2: VGFB71 (antibody, human IgG1, lambda, L234A L235A, V domains shown)
VH: EVQLLESGGGLVQPGGSLRLSCEASGFIFRDYNMNWVRQAPGKGLEWVSIITNDGSSTAYSDSVKGRFTISRDNSKNSLYLQMNSLRAEDTAIYYCVKVYYGMDDWGQGTTVTVSS
VL: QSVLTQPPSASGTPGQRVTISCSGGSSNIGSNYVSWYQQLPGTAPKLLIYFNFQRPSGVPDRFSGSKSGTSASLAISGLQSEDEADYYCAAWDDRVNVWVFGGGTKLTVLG
notes: human IgG1 (L234A/L235A/D265S)
Consider B2, for which the binding result was “no binding (tested: 10 nM)” in experiment [2], “binds” in experiment [3] and “binds” in experiment [4].

B3: VGFB82 (antibody, human IgG1, lambda, L234A L235A, V domains shown)
VH: EVQLLESGGGLVQPGGSLRLSCEASGFDFSTYAMNWVRQAPGKGLEWVATINSEGTITSHAPAVKGRFTISRDNSKNTAYVQMNSLRAEDSAVYYCSSTTGTTHGMDVWGRGTTVTVSS
VL: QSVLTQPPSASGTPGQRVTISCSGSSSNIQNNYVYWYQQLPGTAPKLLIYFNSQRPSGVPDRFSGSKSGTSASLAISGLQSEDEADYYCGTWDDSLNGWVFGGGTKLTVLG
notes: as for B2
B3: in experiment [5], the dissociation constant (Kd) is 0.01 nM and < 0.006 nM.
